This note sets out measurements from PMC8484605, “A complex of BRCA2 and PP2A-B56 is required for DNA repair by homologous recombination” (Nature Communications, 2021).

Square brackets hold non-standard residues; d marks the D form. Ends that are not written are not given here. pT = C[C@@H](OP(=O)(O)O)[C@H](N)C(=O)O; pS = N[C@@H](COP(=O)(O)O)C(=O)O

In assay [1] the test system is U2OS Flp-In T-REx cells. Nature of the assay: Colony formation assay: CPT sensitivity. It is filed as cell-based, human. As to the method: For transient protein expression, cells were transfected with Lipofectamine 2000 (Invitrogen) and the plasmid of interest and incubated for 48 h unless otherwise stated. For BRCA2 knockdown, cells were transfected twice with 10 nM Silencer Select BRCA2 s2084 siRNA and 10 nM Silencer Select BRCA2 s2085 siRNA (Ambion) using Lipofectamine RNAiMAX (Invitrogen) 24 and 48 h before the experiment. A luciferase oligo ([NT], Sigma) was used for control (Ctrl). U2OS Flp-In T-REx parental cells or stably expressing siRNA-resistant venus-MBP-BRCA2 constructs were transfected with Ctrl or BRCA2 siRNA as described above. […] Reseeding was performed by trypsinizing the cells, dissolving into growth medium, and counting the number of cells using the Scepter Cell Counter (Merck), followed by seeding a known number of cells into six-well plates containing growth medium. After 11 days, the cells were fixed and stained in 0.5% methylviolet, 25% methanol. The plates were scanned on a GelCount (Oxford Optronix), and the number of colonies were quantified using the GelCount software (version 1.3.04). The plating efficiency (%) for each well was calculated as the number of colonies divided by the number of cells seeded times 100. The surviving fraction for each dose of drug was calculated by normalizing the plating efficiency to that of the unperturbed condition. […]

The test system of assay [2] is BRCA2 pT1104/pS1106 and pT1128. Nature of the assay: Western blot of BRCA2 phosphorylation in BRCA2 immunoprecipitates. It counts as cell-based, human. As to conditions: U2OS Flp-In T-REx, S-phase, released 1 h, 2 μM CPT for 1 h. As to the method:
For immunoprecipitations of endogenous BRCA2, U2OS Flp-In T-REx cells were synchronized to S-phase as described above, released for 1 h, and treated for 1 h with 2 μM CPT in presence or absence of 25 μM KU55933 (ATM kinase inhibitor) and 5 μM AZ20 (ATR kinase inhibitor). Cells were lysed in RIPA buffer, and proteins were immunoprecipitated on BRCA2 antibody-conjugated (Millipore Cat# OP95, RRID:AB_2067762) Rec-protein G Sepharose 4B beads (Invitrogen) for 1 h at 4 °C and washed in RIPA buffer prior to elution.
All buffers were supplemented with 1 mM DTT, Complete protease inhibitor cocktail (Roche), and PhosSTOP phosphatase inhibitor cocktail (Roche). For λ phosphatase treatment experiments, immunoprecipitants on beads were washed in buffer without phosphatase inhibitor and incubated with λ phosphatase (Sigma–Aldrich) in the applied buffer for 20 min at 30 °C before elution. Immunoprecipitants were eluted in 2× NuPage LDS sample buffer (Invitrogen). Whole-cell extracts and immunoprecipitations were analyzed by SDS-PAGE and western blotting or mass spectrometry analysis. For western blotting, samples were boiled for 5 min in NuPage LDS sample buffer and run on NuPage Bis-Tris 4–12% protein gels (Invitrogen), and proteins were transferred to PVDF membranes (Immobilon-FL, Merck). […] Quantification of western blots were carried out in ImageStudioLite (version 5.2.5., LI-COR). […]
Background: In western blotting, separated proteins are transferred to a membrane and probed.

Assay [3] relates to U2OS Flp-In T-REx cells. The experiment in a line: Colony formation assay: Olaparib sensitivity. It counts as cell-based, human. As to the method:
For transient protein expression, cells were transfected with Lipofectamine 2000 (Invitrogen) and the plasmid of interest and incubated for 48 h unless otherwise stated. For BRCA2 knockdown, cells were transfected twice with 10 nM Silencer Select BRCA2 s2084 siRNA and 10 nM Silencer Select BRCA2 s2085 siRNA (Ambion) using Lipofectamine RNAiMAX (Invitrogen) 24 and 48 h before the experiment. A luciferase oligo ([NT], Sigma) was used for control (Ctrl). U2OS Flp-In T-REx parental cells or stably expressing siRNA-resistant venus-MBP-BRCA2 constructs were transfected with Ctrl or BRCA2 siRNA as described above. […] Reseeding was performed by trypsinizing the cells, dissolving into growth medium, and counting the number of cells using the Scepter Cell Counter (Merck), followed by seeding a known number of cells into six-well plates containing growth medium. After 11 days, the cells were fixed and stained in 0.5% methylviolet, 25% methanol. The plates were scanned on a GelCount (Oxford Optronix), and the number of colonies were quantified using the GelCount software (version 1.3.04). The plating efficiency (%) for each well was calculated as the number of colonies divided by the number of cells seeded times 100. The surviving fraction for each dose of drug was calculated by normalizing the plating efficiency to that of the unperturbed condition. The plating efficiency data of Figs. 2, 3, and Supplementary Fig. 3 is derived from the unperturbed condition of the MMC sensitivity dataset, and the plating efficiency data of Fig. 4 is derived from the unperturbed condition of the Olaparib sensitivity dataset. Graphs were constructed in PRISM, and one-way ANOVA analyses with Dunnett's multiple comparison tests were performed comparing the mean of each condition to the siBRCA2 + WT condition. Exact p values are provided in the source data.

The target in assay [4] is T1, B56α (Homo sapiens, UniProt Q15172). Nature of the assay: isothermal titration calorimetry. As to conditions: reference: unphosphorylated peptide. A general note: ITC needs no label: the signal is the heat of the interaction.
T1 sequence (Q15172 whole entry): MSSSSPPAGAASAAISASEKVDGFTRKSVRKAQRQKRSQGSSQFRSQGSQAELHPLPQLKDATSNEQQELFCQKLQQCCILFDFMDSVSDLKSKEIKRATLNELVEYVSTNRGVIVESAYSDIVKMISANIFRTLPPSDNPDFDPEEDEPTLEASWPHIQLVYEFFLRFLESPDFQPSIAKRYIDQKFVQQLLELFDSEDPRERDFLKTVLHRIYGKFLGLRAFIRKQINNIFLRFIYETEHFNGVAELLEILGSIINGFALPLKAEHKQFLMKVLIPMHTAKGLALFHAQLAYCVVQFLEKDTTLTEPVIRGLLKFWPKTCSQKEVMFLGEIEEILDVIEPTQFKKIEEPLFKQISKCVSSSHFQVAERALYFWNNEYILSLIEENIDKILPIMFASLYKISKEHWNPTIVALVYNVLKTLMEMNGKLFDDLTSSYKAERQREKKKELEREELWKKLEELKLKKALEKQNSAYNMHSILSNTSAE
Assay [5] deals with U2OS Flp-In T-REx cells. The experiment in a line: Colony formation assay: MMC sensitivity. It is filed as cell-based, human.
Protocol: For transient protein expression, cells were transfected with Lipofectamine 2000 (Invitrogen) and the plasmid of interest and incubated for 48 h unless otherwise stated. For BRCA2 knockdown, cells were transfected twice with 10 nM Silencer Select BRCA2 s2084 siRNA and 10 nM Silencer Select BRCA2 s2085 siRNA (Ambion) using Lipofectamine RNAiMAX (Invitrogen) 24 and 48 h before the experiment. A luciferase oligo (5′-[sequence]dTdT-3′, Sigma) was used for control (Ctrl).
U2OS Flp-In T-REx parental cells or stably expressing siRNA-resistant venus-MBP-BRCA2 constructs were transfected with Ctrl or BRCA2 siRNA as described above. Then, cells were either treated with 0, 3, or 10 ng/mL Mitomycin C for 24 h followed by reseeding into normal growth medium or reseeded directly and either treated for 24 h with 0, 5, or 15 nM CPT or continuously maintained in medium containing 0, 5.6, 16.7, or 50 nM Olaparib. […] The plates were scanned on a GelCount (Oxford Optronix), and the number of colonies were quantified using the GelCount software (version 1.3.04). The plating efficiency (%) for each well was calculated as the number of colonies divided by the number of cells seeded times 100. The surviving fraction for each dose of drug was calculated by normalizing the plating efficiency to that of the unperturbed condition. […]
The target in assay [6] is T1, B56α. Nature of the assay: Isothermal titration calorimetry (ITC) of BRCA2 peptides binding to B56α. Also on record: His; made in house; host or cells: E. coli BL21 Rosetta2 (DE3) R3 T1. As to conditions: ITC at 25 °C; 50 mM sodium phosphate pH 7.5, 150 mM NaCl, 0.5 mM TCEP; peptide titrated into B56α; single-site model; error = standard error of the fitting; performed once.
Protocol: Both recombinant B56α and synthetic BRCA2 peptides were extensively dialyzed prior to ITC experiments against the ITC buffer (50 mM sodium phosphate pH 7.5, 150 mM NaCl, 0.5 mM TCEP). All experiments were performed on a MicroCal Auto-iTC200 (Malvern Panalytical) instrument at 25 °C (Auto-iTC200 version 1.1.1.0, iTC200 version 1.26.4, Origin version 7.0552 SR4). Both peptide and B56α concentrations were determined using a spectrophotometer by measuring the absorbance at 280 nm and applying values for the extinction coefficients as computed from the corresponding sequences by the ProtParam program (http://web.expasy.org/protparam/). The BRCA2 peptides were loaded into the syringe and titrated into the calorimetric cell containing B56α. The reference cell was filled with distilled water. Control experiments with the peptides injected in the sample cell filled with buffer were carried out under the same experimental conditions. […] The titration sequence consisted of a single 0.4 μl injection followed by 19 injections, 2 μl each, with 150 s spacing between injections to ensure that the thermal power returns to the baseline before the next injection. The stirring speed was 750 rpm. […] Data were analysed with MicroCal PEAQ-ITC analysis software (version 1.1.0.1262., Malvern Panalytical).

In a further assay the target is T2, His-tagged B56α (UniProt Q15172 1-486).
T2 construct: source: E. coli BL21 Rosetta2 (DE3) R3 T1, purified (Ni column, Superdex 200)
T2 sequence (Q15172 whole entry): as above
The experiment in a line: ITC; BRCA2 peptide in the syringe titrated into B56α in the cell; 25 °C; 50 mM sodium phosphate pH 7.5, 150 mM NaCl, 0.5 mM TCEP; single-site model. As to conditions: both partners purified.

Where [7] appears, read: BRCA2 depletion (siBRCA2) vs siCtrl.
The mark [8] stands for this setting: cells expressing BRCA2 3AQ compared to BRCA2 WT.

For `CC[C@@]1(O)C(=O)OCc2c1cc1n(c2=O)Cc2cc3ccccc3nc2-1` [Camptothecin, camptothecin], the CPT sensitivity entry in the assay with U2OS Flp-In T-REx cells [1] (setting [7]) and with U2OS Flp-In T-REx cells [1] (setting [8]) was “hypersensitivity” throughout. The “phosphorylation of BRCA2 T1104/S1106 and T1128” value in assay [2] is given as “stimulated”.

`O=C(c1cc(Cc2n[nH]c(=O)c3ccccc23)ccc1F)N1CCN(C(=O)C2CC2)CC1` [Olaparib]: the Olaparib sensitivity entry is listed as “hypersensitivity” in the assay with U2OS Flp-In T-REx cells [3] (setting [7]); “hypersensitivity” in the assay on U2OS Flp-In T-REx cells [3] (setting [8]); “mild sensitivity” in the assay with U2OS Flp-In T-REx cells [3] (cells expressing BRCA2 S1106R, T1116P or T1128I compared to BRCA2 WT).

For the molecule “BRCA2 (from UniProt P51587) pS1123 peptide”, the fold change entry with B56α [4] (sites S1123) is recorded as “stronger”.

As for “BRCA2 (from UniProt P51587) pT1128 peptide (printed once as S1128)”, the fold change result with B56α [4] (sites T1128) was “stronger”.

As for “BRCA2 (from UniProt P51587) pS1106 peptide”, the “binding against the reference” value with B56α [4] (sites S1106) was “weaker”.

Consider `CO[C@@]12[C@H](COC(N)=O)C3=C(C(=O)C(C)=C(N)C3=O)N1C[C@@H]1N[C@@H]12` [MMC, Mitomycin C], for which the MMC sensitivity entry in the assay with U2OS Flp-In T-REx cells [5] (setting [7]) and in the assay with U2OS Flp-In T-REx cells [5] (cells expressing BRCA2 3AQ or 3DQ compared to BRCA2 WT) was “hypersensitivity” each time.

On to “WKAEITEASTALEESGSQFE [BRCA2^1108-1126 2A, synthetic BRCA2 peptide 1108-1126 with L1114A-I1117A]”, for which the KD result on B56α [6] is “No binding”.

Regarding “BRCA2 (from UniProt P51587) doubly phosphorylated pS1123/pT1128 peptide”, in the assay with B56α [4] (sites S1123,T1128), the fold change entry is on record as “stronger”.

B1: BRCA2 1113-1129 peptide (peptide)
peptide: WELSTILEESGSQFEFTQ
notes: tryptophan at the N-terminus, outside the stated BRCA2 limits; human BRCA2, residues 1113-1129; source: synthetic peptide (Peptide 2.0 Inc.)
As a reminder, the Kd is a measure of binding affinity in units of concentration. A lower Kd goes with tighter binding. As a reminder, the stoichiometry N is a count of units in the complex or per binding partner. On to B1, for which, in the assay with His-tagged B56α, binding was characterised by a dissociation constant (Kd) of 3.82 µM and the “stoichiometry N” value is 1.01.

B2: BRCA2 1108-1126 peptide (peptide)
peptide: WKAEITELSTILEESGSQFE
notes: tryptophan at the N-terminus, outside the stated BRCA2 limits; human BRCA2, residues 1108-1126 with the LxxIxE motif; The added W probably serves the A280 concentration measurement; also called BRCA2^1108-1126 WT; source: synthetic peptide (Peptide 2.0 Inc.)
B2: in the assay with His-tagged B56α, the dissociation constant Kd is 5.17 µM and the “stoichiometry N” value was 1.02.

B3: BRCA2 1105-1129 peptide (peptide)
peptide: PSQKAEITELSTILEESGSQFEFTQW
notes: human BRCA2, residues 1105-1129; tryptophan at the C-terminus, outside the stated BRCA2 limits; also called BRCA2^1105-1129 WT; source: synthetic peptide (Peptide 2.0 Inc.)
Regarding B3, in the assay with His-tagged B56α, binding was put at a Kd of 7.76 µM and the “stoichiometry N” value was 0.99.

B4: BRCA2 1105-1129 T1116P peptide (peptide)
peptide: PSQKAEITELSPILEESGSQFEFTQW
notes: human BRCA2, residues 1105-1129 with the missense variant T1116P reported in individuals (ClinVar); tryptophan at the C-terminus, outside the stated BRCA2 limits; also called c.3346 A > C; source: synthetic peptide (Peptide 2.0 Inc.)
With B4, in the assay with His-tagged B56α, binding was put at a Kd of 6.92 µM and the “stoichiometry N” value was 0.85.

B5: BRCA2 1105-1129 T1128I peptide (peptide)
peptide: PSQKAEITELSTILEESGSQFEFIQW
notes: human BRCA2, residues 1105-1129 with the missense variant T1128I reported in individuals (ClinVar); tryptophan at the C-terminus, outside the stated BRCA2 limits; also called c.3383 C > T; source: synthetic peptide (Peptide 2.0 Inc.)
As to B5, in the assay with His-tagged B56α, the Kd was found to be 7.43 µM and the “stoichiometry N” value was 1.01.

B6: BRCA2 1105-1129 S1106R peptide (peptide)
peptide: PRQKAEITELSTILEESGSQFEFTQW
notes: human BRCA2, residues 1105-1129 with the missense variant S1106R reported in individuals (ClinVar); tryptophan at the C-terminus, outside the stated BRCA2 limits; also called c.3318 C > G; source: synthetic peptide (Peptide 2.0 Inc.)
As for B6, in the assay with His-tagged B56α, the Kd came to 2.93 µM and the “stoichiometry N” value is 0.95.

B7: BRCA2 1113-1129 pS1123, pT1128 peptide (peptide)
peptide: WELSTILEESG[pS]QFEF[pT]Q
notes: tryptophan at the N-terminus, outside the stated BRCA2 limits; human BRCA2, residues 1113-1129, S1123 and T1128 phosphorylated; also called double phosphorylated peptide; source: synthetic peptide (Peptide 2.0 Inc.)
Consider B7, for which, in the assay with His-tagged B56α, the Kd was 0.48 µM and the “stoichiometry N” value turned out to be 0.91.

B8: BRCA2 1113-1129 pT1128 peptide (peptide)
peptide: WELSTILEESGSQFEF[pT]Q
notes: tryptophan at the N-terminus, outside the stated BRCA2 limits; human BRCA2, residues 1113-1129, T1128 phosphorylated; source: synthetic peptide (Peptide 2.0 Inc.)
For B8, in the assay with His-tagged B56α, the Kd amounted to 1.38 µM and the “stoichiometry N” value is 0.94.

B9: BRCA2 1113-1129 pS1123 peptide (peptide)
peptide: WELSTILEESG[pS]QFEFTQ
notes: tryptophan at the N-terminus, outside the stated BRCA2 limits; human BRCA2, residues 1113-1129, S1123 phosphorylated; source: synthetic peptide (Peptide 2.0 Inc.)
As to B9, in the assay with His-tagged B56α, binding was characterised by a dissociation constant (Kd) of 0.77 µM and the “stoichiometry N” value was 0.92.

B10: BRCA2 1105-1129 3DQ peptide (peptide)
peptide: PDQKAEITELSTILEESGDQFEFDQW
notes: human BRCA2, residues 1105-1129 with the three SQ/TQ sites changed to DQ (phosphomimetic); tryptophan at the C-terminus, outside the stated BRCA2 limits; source: synthetic peptide (Peptide 2.0 Inc.)
Consider B10, for which, in the assay with His-tagged B56α, the Kd worked out at 3.75 µM and the “stoichiometry N” value was 0.86.
